Experiment [1] concerns the target T1, Protein A (UniProt P38507 37-327).
T1 construct: Commercial chromatography resin; also called rProtein A Sepharose Fast Flow (GE Healthcare)
The experiment is described as follows: Protein A column chromatography, stepwise pH elution; eluted fractions analysed by cation exchange chromatography (peak area %).

The target in experiment [2] is T2, Protein A (UniProt P38507 37-327).
T2 construct: bought recombinant resin; also called rProtein A Sepharose Fast Flow
The experiment is described as follows: Protein A affinity chromatography, elution at pH 3.6.

Experiment [3] concerns the target T2, Protein A. Put plainly: Protein A affinity chromatography, stepwise pH elution. From the text:
Samples purified by batchwise elution were used as controls.

The target in experiment [4] is T2, Protein A. The experiment is described as follows: Protein A affinity chromatography, elution at pH 3.6 and pH 2.7.

Residue numbers refer to the chain shown, from its start.

B1: J142-z72/L180-k (antibody, human IgG4 S228P, kappa)
heavy: QVQLVQSGSELKKPGASVKVSCKASGYTFTDNNMDWVRQAPGQGLEWMGDINTRSGGSIYNEEFQDRVTMTIDKSTGTAYMELSSLRSEDTAVYYCARRRSYGYYHDEWGEGTLVTVSSASTKGPSVFPLAPCSRSTSESTAALGCLVKDYFPEPVTVSWNSGALTSGVHTFPAVLQSSGLYSLSSVVTVPSSSLGTKTYTCNVDHKPSNTKVDKRVESKYGPPCPPCPAPEFLGGPSVFLFPPKPKDTLMISRTPEVTCVVVDVSQEDPEVQFNWYVDGVEVHNAKTKPREEQFNSTYRVVSVLTVLHQDWLNGKEYKCKVSNKGLPSSIEKTISKAKGQPREPQVYTLPPSQEEMTKNQVSLTCLVKGFYPSDIAVEWESNGQPENNYKTTPPVLDSDGSFFLYSRLTVDKSRWQEGNVFSCSVMHEALHNRFTQKSLSLSP
light: DIQMTQSPSSLSASVGDRVTITCKASRNIERNLAWYQQKPGQAPELLIYSASRKESGVPDRFSGSRYGTDFTLTISSLQPEDLATYYCQQYYSPPLTFGGGTKVEIKRTVAAPSVFIFPPSDEQLKSGTASVVCLLNNFYPREAKVQWKVDNALQSGNSQESVTEQDSKDSTYSLSSTLTLSKADYEKHKVYACEVTHQGLSSPVTKSFNRGEC
notes: also called homomeric antibody against FX
With B1, the binding result in experiment [1] is “no binding”.

B2: J300-z107/L210-k (antibody, human IgG4 S228P, kappa)
heavy: QVQLVQSGSELKKPGASVKVSCKASGYTFTDNNMDWVRQAPGQGLEWMGDINTRSGGSIYNEEFQDRVIMTVDKSTDTAYMELSSLRSEDTAVYHCARRKSYGYYLDEWGEGTLVTVSSASTKGPSVFPLAPCSRSTSESTAALGCLVKDYFPEPVTVSWNSGALTSGVHTFPAVLQSSGLYSLSSVVTVPSSSLGTQTYTCNVDHKPSNTKVDKRVESKYGPPCPPCPAPEFLGGPSVFLFPPKPKDTLMISRTPEVTCVVVDVSQEDPEVQFNWYVDGVEVHNAKTKPREEQYNSTYRVVSVLTVLHQDWLNGKEYKCKVSNKGLPSSIEKTISKAKGQPREPQVYTLPPSQEEMTKNQVSLTCLVKGFYPSDIAVEWESNGQPENNYKTTPPVLDSDGSFFLYSKLTVDKSRWQEGNVFSCSVMHEALHNRYTQESLSLSP
light: B1 light with L83I, Y92S
notes: also called homomeric antibody J300-z107
For the molecule B2, the binding result in experiment [2] is “no binding”.

B3: J142-z72/L180-k (antibody, human IgG4 S228P, kappa)
heavy: B1 heavy
light: B1 light
notes: also called homomeric antibody J142-z72; homomeric antibody against FX
Regarding B3, the binding result in experiment [3] is listed as “no binding”.

B4: J142-z73/L180-k (antibody, human IgG4 S228P, kappa)
heavy: B1 heavy with K438E
light: B1 light
notes: also called homomeric antibody J142-z73
Consider B4, for which the binding result in experiment [4] is “no binding”.

Source of the values: patent US20150344570A1 (published 2015).
